These results are taken from paper PMC9986714.

Some targets named below: Cathepsin X (human) (UniProt Q9UBR2); Cathepsin S (human) (UniProt P25774); Cathepsin F (human) (UniProt Q9UBX1).
Assay [1] concerns the target Human cathepsin V (human) (UniProt O60911).
For assay [2], the target named is Bovine cathepsin C (bovine).
The target of assay [3] is Fasciola hepatica cathepsin L3 (Fasciola hepatica).
The target in assay [4] is Human cathepsin L (human).
Assay [5] deals with Fasciola hepatica cathepsin L1 (Fasciola hepatica).
In assay [6] the target is Bovine cathepsin H (bovine).
In assay [7] the target is Fasciola hepatica cathepsin L2 (Fasciola hepatica).
For assay [8], the target named is Carica papaya papain (Carica papaya) (UniProt P00784).
Sequence of Carica papaya papain (Carica papaya) (P00784 134-345): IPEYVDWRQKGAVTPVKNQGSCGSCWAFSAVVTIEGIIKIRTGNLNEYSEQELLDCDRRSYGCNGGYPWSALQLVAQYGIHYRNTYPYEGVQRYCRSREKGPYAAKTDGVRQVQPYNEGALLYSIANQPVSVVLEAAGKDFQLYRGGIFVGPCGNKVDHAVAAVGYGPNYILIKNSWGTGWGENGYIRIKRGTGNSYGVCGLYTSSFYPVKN
The target in assay [9] is Human cathepsin K (human) (UniProt P43235).
Sequence of Human cathepsin K (human) (P43235 115-329): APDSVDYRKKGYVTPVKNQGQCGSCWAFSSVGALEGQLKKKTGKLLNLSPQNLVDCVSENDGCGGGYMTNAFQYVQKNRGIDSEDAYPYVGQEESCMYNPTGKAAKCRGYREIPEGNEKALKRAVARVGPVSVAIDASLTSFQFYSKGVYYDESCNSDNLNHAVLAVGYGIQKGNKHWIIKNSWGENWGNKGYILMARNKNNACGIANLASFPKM

Sequence of Cathepsin F (human) (Q9UBX1 271-484): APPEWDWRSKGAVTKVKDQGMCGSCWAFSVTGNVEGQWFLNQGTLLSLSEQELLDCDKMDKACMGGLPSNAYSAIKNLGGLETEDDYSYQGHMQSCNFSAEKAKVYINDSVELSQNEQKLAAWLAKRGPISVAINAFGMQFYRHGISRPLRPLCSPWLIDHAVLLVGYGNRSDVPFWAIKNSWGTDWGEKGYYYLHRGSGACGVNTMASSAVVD
Sequence of Human cathepsin V (human) (O60911 114-334): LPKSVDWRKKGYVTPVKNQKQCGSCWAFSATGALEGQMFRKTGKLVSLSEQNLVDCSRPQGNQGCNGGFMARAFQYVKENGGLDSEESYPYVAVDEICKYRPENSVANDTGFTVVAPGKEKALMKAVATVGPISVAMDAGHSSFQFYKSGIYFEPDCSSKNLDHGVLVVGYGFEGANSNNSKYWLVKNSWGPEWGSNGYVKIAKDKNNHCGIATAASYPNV
Sequence of Cathepsin S (human) (P25774 115-331): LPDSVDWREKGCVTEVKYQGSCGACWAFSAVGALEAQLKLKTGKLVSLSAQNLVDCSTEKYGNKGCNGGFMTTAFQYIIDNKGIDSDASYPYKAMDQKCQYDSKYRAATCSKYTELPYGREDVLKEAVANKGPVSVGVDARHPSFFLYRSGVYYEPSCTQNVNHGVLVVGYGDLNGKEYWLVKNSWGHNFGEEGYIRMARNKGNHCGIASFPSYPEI
Sequence of Cathepsin X (human) (Q9UBR2 62-303): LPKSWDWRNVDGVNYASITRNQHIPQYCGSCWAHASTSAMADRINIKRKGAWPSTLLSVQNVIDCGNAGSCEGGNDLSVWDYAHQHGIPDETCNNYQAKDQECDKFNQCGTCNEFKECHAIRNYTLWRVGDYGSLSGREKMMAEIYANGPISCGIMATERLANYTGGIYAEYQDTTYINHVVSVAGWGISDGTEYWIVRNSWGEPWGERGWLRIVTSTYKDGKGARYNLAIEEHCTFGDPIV

“Fasciola hepatica cystatin-like stefin 2 (FhCyLS-2), recombinant (natural protein)”: the IC50 of inhibition of protease activity (kinetic assay, 3.6 μM Z-Phe-Arg-AMC, 0.1 nM cathepsin V, 100 mM Na acetate pH 5.5, 37 °C, 15 min preincubation) in assay [1] came to 5.9 nM. Besides, in assay [2], the IC50 of inhibition of protease activity (kinetic assay, 130 μM H-Gly-Arg-AMC, 0.4 nM cathepsin C, 100 mM Na acetate pH 5.5 with 50 mM NaCl, 37 °C, 15 min preincubation) is 66 nM. In the assay with Cathepsin X (human), this substance had an IC50 of inhibition of protease activity (kinetic assay, 87 μM Abz-Phe-Arg-Phe(NO2)-OH, 1.2 nM cathepsin X, 100 mM Na acetate pH 5.0, 37 °C, 15 min preincubation) of 8.4 µM. This substance gave an IC50 of inhibition of protease activity (kinetic assay, 17 μM Z-Val-Val-Arg-AMC, 0.1 nM cathepsin S, 50 mM MES pH 6.5, 37 °C, 15 min preincubation) in the assay with Cathepsin S (human) of 1.1 nM. Besides, the IC50 of inhibition of protease activity (kinetic assay, 20 μM Z-Gly-Pro-Arg-AMC, 6 nM FhCL3, 50 mM MES pH 5.5, 37 °C, 15 min preincubation) in assay [3] worked out at 18 nM. In [4], this substance registered an IC50 of inhibition of protease activity (kinetic assay, 2.5 μM Z-Phe-Arg-AMC, 0.2 nM cathepsin L, 100 mM Na acetate pH 5.5, 37 °C, 15 min preincubation) of 0.92 nM. In addition, the IC50 of inhibition of protease activity (kinetic assay, 20 μM Z-Phe-Arg-AMC, 2 nM FhCL1, 50 mM MES pH 5.5, 37 °C, 15 min preincubation) in assay [5] stood at 2.5 nM. The same substance had an IC50 of inhibition of protease activity (kinetic assay, 100 μM H-Arg-AMC, 1.9 nM cathepsin H, 50 mM MES pH 6.5, 37 °C, 15 min preincubation) in [6] of 2.5 nM. The substance further came in with an IC50 of inhibition of protease activity (kinetic assay, 20 μM Z-Phe-Arg-AMC, 5 nM FhCL2, 50 mM MES pH 6.0, 37 °C, 15 min preincubation) in assay [7] of 10 nM. The substance further came in with an IC50 of inhibition of protease activity (kinetic assay, 100 μM Z-Phe-Arg-AMC, 0.5 nM papain, 100 mM Na acetate pH 5.5, 37 °C, 15 min preincubation) in assay [8] of 1.1 nM. In addition, in assay [9], the IC50 of inhibition of protease activity (kinetic assay, 4.3 μM Z-Phe-Arg-AMC, 0.2 nM cathepsin K, 100 mM Na acetate pH 5.5, 37 °C, 15 min preincubation) came to 8.6 nM. Further, the IC50 of inhibition of protease activity (kinetic assay, 53 μM Z-Phe-Arg-AMC, 0.2 nM cathepsin B, 100 mM Na acetate pH 5.5, 37 °C, 15 min preincubation) in the assay with Cathepsin B (human) was found to be 2.1 nM. For the same substance, the IC50 of inhibition of protease activity (kinetic assay, 27 μM Z-Phe-Arg-AMC, 1.2 nM cathepsin F, 100 mM Na acetate pH 5.5, 37 °C, 15 min preincubation) with Cathepsin F (human) came out at 49 nM.
